Source: publication PMC7707563, “Lack of evidence for expression and function of IL-39 in human immune cells” (PLoS ONE, 2020)

T1: human IL-23 p19 (aa20-189) (human, UniProt Q9NPF7 20-189)
T1 construct: human IL-23 p19 subunit, aa20-189, ORF in the mammalian expression vector pRS5a, untagged; The stated range lacks the protein's own signal peptide, yet the protein is secreted; also called IL-23A-p19; source: HEK293FT, transfected (pRS5a-IL23p19), in concentrated supernatant
T1 sequence (looked up): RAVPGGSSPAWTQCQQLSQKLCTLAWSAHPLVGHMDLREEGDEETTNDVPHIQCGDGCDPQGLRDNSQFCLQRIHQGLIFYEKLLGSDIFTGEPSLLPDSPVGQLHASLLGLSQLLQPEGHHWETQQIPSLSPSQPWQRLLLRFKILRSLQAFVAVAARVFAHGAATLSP

B1: C-terminally 10 x His-tagged EBI3 (natural protein, human, UniProt Q14213 21-229, looked up)
chain: RKGPPAALTLPRVQCRASRYPIAVDCSWTLPPAPNSTSPVSFIATYRLGMAARGHSWPCLQQTPTSTSCTITDVQLFSMAPYVLNVTAVHPWGSSSSFVPFITEHIIKPDPPEGVRLSPLAERQLQVQWEPPGSWPFPEIFSLKYWIRYKRQGAARFHRVGPIEATSFILRAVRPRARYYVQVAAQDLTDYGELSDWSLPATATMSLGK
notes: human Epstein-Barr Virus-induced 3 (EBI3), aa21-229, ORF in the mammalian expression vector pRS5a; The limits aa21-229 are printed for EBI3; also called EBI3-His; His-EBI3; source: HEK293FT, transfected (pRS5a-EBI3-His10), in concentrated supernatant; not shown: His10, C-terminal, kept

Experiments:
[1] = biological target: human IL-23 receptor on HEK-Blue IL-23 cells (human) (UniProt Q5VWK5)
Chain of human IL-23 receptor on HEK-Blue IL-23 cells (human) (Q5VWK5 24-629): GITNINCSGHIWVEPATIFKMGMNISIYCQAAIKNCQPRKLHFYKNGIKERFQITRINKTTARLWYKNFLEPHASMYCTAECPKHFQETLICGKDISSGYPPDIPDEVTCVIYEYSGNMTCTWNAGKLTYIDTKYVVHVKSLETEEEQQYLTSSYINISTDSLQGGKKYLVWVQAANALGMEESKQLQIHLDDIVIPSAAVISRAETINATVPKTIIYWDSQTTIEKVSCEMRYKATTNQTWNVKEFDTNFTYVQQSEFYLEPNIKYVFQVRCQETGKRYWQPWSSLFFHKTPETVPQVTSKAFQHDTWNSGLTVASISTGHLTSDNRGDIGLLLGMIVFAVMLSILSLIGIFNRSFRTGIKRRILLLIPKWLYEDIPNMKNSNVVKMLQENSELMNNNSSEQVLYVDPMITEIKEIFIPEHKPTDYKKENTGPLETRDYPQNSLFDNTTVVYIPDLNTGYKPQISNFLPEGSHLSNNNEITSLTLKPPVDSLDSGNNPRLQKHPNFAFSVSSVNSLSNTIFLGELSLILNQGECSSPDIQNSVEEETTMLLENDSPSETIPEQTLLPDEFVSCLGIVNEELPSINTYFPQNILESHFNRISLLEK

[2] = biological target: T1, human IL-23 p19 (aa20-189); assay: ELISA; sandwich: plate coated with anti-p19 antibody, concentrated supernatants of p19 and EBI3-His transfected HEK293FT cells 2 hrs at room temperature, detection with biotinylated EBI3 antibody and HRP-Avidin; settings: partners not purified

Molecule	STAT3 activity (SEAP reporter) over background in HEK-Blue IL-23 cells, various concentrations of IL-23, concentration-dependent; number printed for 2 pM IL-23 [1] [fold]	fold increase in optical density against supernatants of mock or single transfected cells [2] [fold]
recombinant human IL-23 (from UniProt Q9NPF7 20-189; P29460 23-328) (complex)	2.5	
B1		~2.5
